These results are taken from patent US20210071162A1 (CENTRE NATIONAL DE LA RECHERCHE SCIENTIFIQUE, published 2021).

The target of one data set is T1, GLM.
T1 chain: GLM

The target of the next data set is T2, GMDSLAFSGGL
T2 chain: GMDSLAFSGGL

The target of the next data set is T3, Gly-Gly-pNA.
T3 chain: GG

In another data set the target is T4, LGG.
T4 chain: LGG

Data set [1] concerns the molecule itself. The data set is described as follows: self-assembly of PhTET4 subunits; size-exclusion chromatography and negative stain electron microscopy. Here is the method:
After the size exclusion chromatography step, 4 μl of PhTET4 at 0.05 mg/ml were deposited onto carbon-coated 400-mesh copper grids. The samples were stained using uranyl acetate 2% and air-dried. Images were taken under low-dose conditions in a T12FEI electron microscope working at 120 kV and with a nominal magnification of 40,000 using an Orius SC1000 CCD camera.
The three-dimensional structure of PhTET4 was assessed by producing the recombinant PhTET4 in E. coll. The cellular extract was clarified by heat shock precipitation and the recombinant protein was purified by ion-exchange and size-exclusion chromatographies. […] The dimensions and the shape of PhTET4 are analogous to the three P. horikoshii tetrahedral TET edifices: PhTET1, PhTET2 and PhTET3.
For orientation: In gel filtration, larger molecules generally elute earlier.

B1: PhTET4 (enzyme)
chain: MERIVKILREILEIPSPTGYTKEVMSYLEKFLKENEVNFYYTNKGALIAGNHPKPELVVIAHVDTLGAMVKEILPDGHLAFSRIGGLVLPTFEGEYCTIITRKGKKFRGTLLLRNPSAHVNREVGKKERKEENMYIRLDELVEKREDTEKLGIRPGDFIAFDPKFEYVNGFVKSHFLDDKASVAAILDLIIDMKDELEKYPVAFFFSPYEEVGHGGSAGYPPTTKELLVVDMGVVGEGVSGKETAVSIAAKDTTGPYDYDMTNRLIELAEENNIPYVVDVFPYYGSDGSAALRAGWDFRVALIGPGVHASHGMERTHVKGLLATKELIRAYIKWKG
notes: also called TET protein; protein encoded by PH0737 gene
With B1, the figures for the “cleavage of the N-terminal residue of the peptide (reverse phase HPLC, N-terminal sequencing of products)” value in the data set with GLM, in the data set with GMDSLAFSGGL and with LGG were “PhTET4 does not exert amidolytic activity beyond the N-ter glycine in a peptide context”, “PhTET4 does not exert amidolytic activity beyond the N-ter glycine in a peptide context” and “no enzymatic activity was detected against peptide that do not start by glycine residue even if a glycine residue is present at P1′ position as demonstrated with the LGG tripeptide”, respectively. In addition, in the data set with Gly-Gly-pNA, the “enzymatic activity against the chromogenic peptide (released pNA), relative to Gly-pNA” value is “PhTET4 displayed significant activity against this substrate, corresponding to 10% of the total activity exhibited in presence of monoacyl compound Gly-pNA”. Further, the binding result in data set [1] was “binds”.
